Experiments:
GFP-syntaxin 8 = GFP-syntaxin 8 (UniProt Q9UNK0); test: co-IP; HEK 293 cells co-transfected with myc-tagged Rab and GFP fusion; lysis in 50 mM Tris pH 7.4, 150 mM NaCl, 1% Triton X-100; GFP fusions precipitated on GBP agarose beads, room temperature 1.5 h; blot for myc and GFP; co-IP efficiency = co-IP / input
GFP-dynactin 6 = GFP-dynactin 6 (UniProt O00399); test: as above
UniProt O00399, sequence (O00399 whole entry): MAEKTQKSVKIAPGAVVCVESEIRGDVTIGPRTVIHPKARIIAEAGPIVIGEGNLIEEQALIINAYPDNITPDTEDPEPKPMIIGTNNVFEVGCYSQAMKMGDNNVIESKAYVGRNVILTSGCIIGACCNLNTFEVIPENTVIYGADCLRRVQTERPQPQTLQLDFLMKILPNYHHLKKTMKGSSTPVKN

UniProt Q9UNK0, sequence (Q9UNK0 whole entry, the tested form may be a part): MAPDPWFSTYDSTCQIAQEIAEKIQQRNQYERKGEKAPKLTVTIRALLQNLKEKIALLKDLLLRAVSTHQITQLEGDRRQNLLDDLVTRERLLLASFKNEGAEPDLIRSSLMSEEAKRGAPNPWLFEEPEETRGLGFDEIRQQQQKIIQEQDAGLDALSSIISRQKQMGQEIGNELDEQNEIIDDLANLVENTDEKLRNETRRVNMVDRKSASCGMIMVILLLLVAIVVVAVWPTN

co-IP efficiency (co-IP divided by input) (GFP-syntaxin 8) [%]	co-IP efficiency (co-IP divided by input) (GFP-dynactin 6) [%]	Substance
3.3	2.7	myc-tagged GTP-locked Rab41/6d (from UniProt Q5JT25 1-222) (natural protein)
1.9	2	myc-tagged GDP-locked Rab41/6d (from UniProt Q5JT25 1-222) (natural protein)
